Assay results from PMC12436594, “Probing three-dimensional cyclooctatetraene for nucleobase modification in aptamer selection”.

Target: PvLDH (lactate dehydrogenase) (Plasmodium vivax, UniProt Q4PRK9 1-316)
Test: flow cytometry (Ni-NTA beads)
Conditions: protein: recombinant; tags: His6; chain copies: 4

B1: N15 unmodified (ssDNA)
DNA: CACTCACGTCAGTGACATGCAGGTCCTCTCGCCCCCAGTGACTTGCGTGGTCAGAAATTTCGCACCAC
For B1, the Kd was about 208 nM.
